Source: PMC12133298

Target: Rho WT (Escherichia coli) (UniProt P0AG30)
Assay: EMSA
Conditions: 4 C, 1 mM ATP, 5 mM Mg2+, 25 mM Tris-Cl pH 8.0, 50 mM KCl, 5 mM MgCl2, 1 mM DTT, 37 C (or 4 C), 15 min, 0.8% agarose 0.5x TBE, 5 nM DNA

Rho WT (Escherichia coli), sequence (P0AG30 whole entry): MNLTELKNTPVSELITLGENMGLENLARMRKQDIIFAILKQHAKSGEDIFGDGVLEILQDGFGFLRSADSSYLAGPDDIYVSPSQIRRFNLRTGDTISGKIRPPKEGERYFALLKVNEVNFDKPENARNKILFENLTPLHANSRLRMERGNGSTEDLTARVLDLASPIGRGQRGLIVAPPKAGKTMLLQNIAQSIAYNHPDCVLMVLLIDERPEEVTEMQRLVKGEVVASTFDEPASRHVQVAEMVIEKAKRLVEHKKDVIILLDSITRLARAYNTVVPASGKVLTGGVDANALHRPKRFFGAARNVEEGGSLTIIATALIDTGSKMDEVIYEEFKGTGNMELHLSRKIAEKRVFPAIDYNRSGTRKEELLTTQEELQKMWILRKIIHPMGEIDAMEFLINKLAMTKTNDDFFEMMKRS

Substance 3.5 kb linear dsDNA has a Kd of 12 nM.
